Source: US20220362357A1, “Synergistic Combinations of Amino Acid Depletion Agent Sensitizers (AADAS) and Amino Acid Depletion Agents (AADA), and Therapeutic Methods of Use Thereof” (STICHTING RADBOUD UNIVERSITAIR MEDISCH CENTRUM, priority 2018, published 2022)

System: PDX m877
Experiment: PDX ALL cells co-cultured on hTERT MSCs, ASNase x ibrutinib dilution matrix, microscopy
Assay type: cell-based, human
Details: m877 (3 d), ibrutinib B0=0 to B9=100
Method: After 2-4 months these mice developed full blown leukemia with an immunophenotype and genetic composition that in the large majority of cases is identical to the original material at the time of injection.
Briefly, hTERT immortalized MSCs were seeded in either a 384 wells format (microscopy) or a 96 wells format (7AAD staining) and allowed to settle for 24 hours prior to the addition of ALL xenografts. […] After 3 and 7 days of incubation, cell death was analyzed using microscopy using live cells staining or flowcytometry using 7AAD to discriminate between live or dead cells.

B1: ASNase: native E. coli ASNase (NCBI WP_000394140.1), used in the in vitro studies (protein, UniProt P00805 23-348, looked up)
L-asparaginase 2: LPNITILATGGTIAGGGDSATKSNYTVGKVGVENLVNAVPQLKDIANVKGEQVVNIGSQDMNDNVWLTLAKKINTDCDKTDGFVITHGTDTMEETAYFLDLTVKCDKPVVMVGAMRPSTSMSADGPFNLYNAVVTAADKASANRGVLVVMNDTVLDGRDVTKTNTTDVATFKSVNYGPLGYIHNGKIDYQRTPARKHTSDTPFDVSKLNELPKVGIVYNYANASDLPAKALVDAGYDGIVSAGVGNGNLYKSVFDTLATAAKTGTAVVRSSRVPTGATTQDAEVDDAKYGFVASGTLNPQKARVLLQLALTQTKDPQQIQQIFNQY
ASNase A1=0.01
  live cells by automated microscopy (table names no quantity): 5090
ASNase A2=0.03
  live cells by automated microscopy (table names no quantity): 4877
ASNase A3=0.1
  live cells by automated microscopy (table names no quantity): 4455
ASNase A4=0.3
  live cells by automated microscopy (table names no quantity): 4789
ASNase A5=1
  live cells by automated microscopy (table names no quantity): 5008
ASNase A6=3
  live cells by automated microscopy (table names no quantity): 5125
ASNase A7=10
  live cells by automated microscopy (table names no quantity): 4350
ASNase A8=32
  live cells by automated microscopy (table names no quantity): 1205
ASNase A9 (A=100)
  live cells by automated microscopy (table names no quantity): 2
